Reference: PMC4886647, “Transcriptional Regulation of the Outer Membrane Porin Gene ompW Reveals its Physiological Role during the Transition from the Aerobic to the Anaerobic Lifestyle of Escherichia coli”

How the values were obtained:
His6-CRP = His6-CRP (Escherichia coli, UniProt P0ACJ8 1-210); assay: EMSA; 0.2 mM cAMP; EMSA: 20 mM Tris-HCl pH 8.0, 50 mM NaCl, 1 mM EDTA, 1 mM beta-mercaptoethanol, 10% glycerol, 37 C 30 min; 6% polyacrylamide gel in ice bath; 0.2 mM cAMP for CRP; settings: protein: recombinant; tags: His6 (pET28a); chain copies: 2; blunt
His6-FNR D154A = His6-FNR D154A (Escherichia coli, UniProt P0A9E5 1-250, D154A); assay: EMSA; two retarded bands; EMSA: 20 mM Tris-HCl pH 8.0, 50 mM NaCl, 1 mM EDTA, 1 mM beta-mercaptoethanol, 10% glycerol, 37 C 30 min; 6% polyacrylamide gel in ice bath; 0.2 mM cAMP for CRP; settings: protein: recombinant; tags: His6 (pET28a); chain copies: 2; blunt

B1: PompW -120 to -3 native (dsDNA)
DNA 1: CATTAACCAGGATTCTCAATGCAACTTCTAAATTAATCCAGATCAATAAAGGGTGAATTATCATATGTAATGTGATCTATGTAGGATCATTTGTTACTCCAATGTAGGTATATTCGTC
DNA 2: GACGAATATACCTACATTGGAGTAACAAATGATCCTACATAGATCACATTACATATGATAATTCACCCTTTATTGATCTGGATTAATTTAGAAGTTGCATTGAGAATCCTGGTTAATG
binding result (His6-CRP): binds

B2: PompW m-42.5 (dsDNA)
DNA 1: CATTAACCAGGATTCTCAATGCAACTTCTAAATTAATCCAGATCAATAAAGGGTGAATTATCATATGTAATCTATGTAGGATCATTTGTTACTCCAATGTAGGTATATTCGTC
DNA 2: GACGAATATACCTACATTGGAGTAACAAATGATCCTACATAGATTACATATGATAATTCACCCTTTATTGATCTGGATTAATTTAGAAGTTGCATTGAGAATCCTGGTTAATG
binding result (His6-CRP): no binding

B3: PompW -167 to -36 native (dsDNA)
DNA 1: GAGTTAATATTTGCGTAGCGAAAATATTTAAAAATTGATTTAAATCACATTAACCAGGATTCTCAATGCAACTTCTAAATTAATCCAGATCAATAAAGGGTGAATTATCATATGTAATGTGATCTATGTAGG
DNA 2: CCTACATAGATCACATTACATATGATAATTCACCCTTTATTGATCTGGATTAATTTAGAAGTTGCATTGAGAATCCTGGTTAATGTGATTTAAATCAATTTTTAAATATTTTCGCTACGCAAATATTAACTC
binding result (His6-FNR D154A): binds
